Article PMC2225407

molecular target: MBP::FAX-1 (Caenorhabditis elegans) (UniProt G5EDJ0); assay: EMSA; settings: EMSA: 1.5 ug MBP::FAX-1, 4 ng 32P ds oligo, BSA, 30 min pre-incubation + 30 min on ice, 8% native PAGE; binding buffer salt and pH not given
Sequence of UniProt G5EDJ0 (G5EDJ0 whole entry): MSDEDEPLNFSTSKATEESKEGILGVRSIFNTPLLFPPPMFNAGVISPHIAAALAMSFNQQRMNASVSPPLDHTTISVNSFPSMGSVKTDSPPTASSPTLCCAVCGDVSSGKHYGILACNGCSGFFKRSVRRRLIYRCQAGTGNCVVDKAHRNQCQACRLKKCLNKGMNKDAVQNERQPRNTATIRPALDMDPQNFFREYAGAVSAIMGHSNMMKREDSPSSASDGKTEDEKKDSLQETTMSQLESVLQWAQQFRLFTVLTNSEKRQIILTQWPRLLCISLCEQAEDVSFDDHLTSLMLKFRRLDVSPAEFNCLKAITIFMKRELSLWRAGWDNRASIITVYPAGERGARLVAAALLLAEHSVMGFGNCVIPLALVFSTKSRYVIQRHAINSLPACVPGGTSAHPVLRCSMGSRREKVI

| Sequence | binding signal (% probe bound) |
| --- | --- |
| AATTACCCTTTTAAAAGTCAAAAGTCAACTTCCAA / TCGATTGGAAGTTGACTTTTGACTTTTAAAAGGGT [DR1A] | 53.3 |
| AATTACCCTTTTAAACGTCAAACGTCAACTTCCAA / TCGATTGGAAGTTGACGTTTGACGTTTAAAAGGGT [DR1C] | 26.1 |
| AATTACCCTTTTAAATGTCAAATGTCAACTTCCAA / TCGATTGGAAGTTGACATTTGACATTTAAAAGGGT [DR1T] | 29.8 |
| AATTACCCTTTTAAAAGTCAAAATTCAACTTCCAA / TCGATTGGAAGTTGAATTTTGACTTTTAAAAGGGT [HRSW] | 11.7 |
| AATTACCCTTTTAAAATTTAAAAGTCAACTTCCAA / TCGATTGGAAGTTGACTTTTAAATTTTAAAAGGGT [MON2] | 4.5 |
| AATTACCCTTTTAAAATTCAAAATTCAACTTCCAA / TCGATTGGAAGTTGAATTTTGAATTTTAAAAGGGT [DRNC] | 0.4 |
| AATTACCCTTTTAAAAGTCAAAATTTAACTTCCAA / TCGATTGGAAGTTAAATTTTGACTTTTAAAAGGGT [MON1] | 2.8 |
| AATTACCCTTTTAAAATTCAAAAGTCAACTTCCAA / TCGATTGGAAGTTGACTTTTGAATTTTAAAAGGGT [HRWS] | 10.5 |

same assay, conditions: supershift with anti-FAX-1 shown; EMSA: 1.5 ug MBP::FAX-1, 4 ng 32P ds oligo, BSA, 30 min pre-incubation + 30 min on ice, 8% native PAGE; binding buffer salt and pH not given

| Sequence | binding signal (% probe bound) |
| --- | --- |
| AATTACCCTTTTAAAGGTCAAAGGTCAACTTCCAA / TCGATTGGAAGTTGACCTTTGACCTTTAAAAGGGT [DR1G] | 42.1 |
